Data on 1 molecule can be found in publication PMC10920887, “Natural variation in BnaA9.NF-YA7 contributes to drought tolerance in Brassica napus L”.

In the data set the target is T1, BnaA3.ABF4 (Brassica napus, UniProt X2C209 1-395).
T1 sequence: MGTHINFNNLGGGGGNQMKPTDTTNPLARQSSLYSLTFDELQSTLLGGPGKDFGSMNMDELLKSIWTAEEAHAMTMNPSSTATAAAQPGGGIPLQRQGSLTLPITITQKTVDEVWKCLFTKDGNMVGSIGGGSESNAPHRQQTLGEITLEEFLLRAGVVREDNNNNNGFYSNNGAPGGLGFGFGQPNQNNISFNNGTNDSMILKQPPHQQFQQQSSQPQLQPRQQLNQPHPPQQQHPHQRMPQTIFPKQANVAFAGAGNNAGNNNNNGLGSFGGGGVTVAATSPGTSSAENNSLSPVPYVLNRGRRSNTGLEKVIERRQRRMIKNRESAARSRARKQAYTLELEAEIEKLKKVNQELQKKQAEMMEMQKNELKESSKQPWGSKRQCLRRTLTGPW
Briefly: EMSA; not given in the material. The note with it: protein: recombinant; tags: GST (N-term, pGEX-4T-1); chain copies: 2; label: biotin. A general note: A gel shift assay detects complexes by their altered migration in electrophoresis.

B1: BnaA9.NF-YA7 promoter ABRE probe (dsDNA)
DNA 1: ATCTGCCCGTAATCTGCTACGTGCAATCTAAACGCTT
DNA 2: AAGCGTTTAGATTGCACGTAGCAGATTACGGGCAGAT
On to B1, for which the binding result is recorded as “binds”.
